# Results taken from patent US7670806B2, “ADP-ribosyl acceptor hydrolase 3 (ARH3) polypeptides and methods of use” (The United States of America as represented by the …, priority 2005, dated 2010).
# B1: ARH3 (D77N/D78N): human ARH3 mutant with dual amino acid replacement D77N/D78N (protein)
# chain: MAAAAMAAAAGGGAGAARSLSRFRGCLAGALLGDCVGSFYEAHDTVDLTSVLRHVQSLEPDPGTPGSERTEALYYTNNTAMARALVQSLLAKEAFDEVDMAHRFAQEYKKDPDRGYGAGVVTVFKKLLNPKCRDVFEPARAQFNGKGSYGNGGAMRVAGISLAYSSVQDVQKFARLSAQLTHASSLGYNGAILQALAVHLALQGESSSEHFLKQLLGHMEDLEGDAQSVLDARELGMEERPYSSRLKKIGELLDQASVTREEVVSELGNGIAAFESVPTAIYCFLRCMEPDPEIPSAFNSLQRTLIYSISLGGDTDTIATMAGAIAGAYYGMDQVPESWQQSCEGYEETDILAQSLHRVFQKS
# Legend:
# [1] = Hydrolysis of O-acetyl-[14C]ADP-ribose by ARH proteins / PARG (RP-HPLC); type: biochemical; details: 1.5 pmol wild type or mutant human ARH3 or 20 mU PARG, 2 h at 30° C.; mouse ARH1, 2, 3
# Procedure: FIG. 13A is a graph illustrating the results from incubation of 1.5 pmol of mouse ARH3 with or without 5 mM DTT and/or 10 mM MgCl2 as described in FIG. 11B with incubation for 1 h at 30° C. FIG. 13B is a graph illustrating the results from incubation of 1.5 pmol of wild type or mutant human (D77-78) ARH3 or 20 mU of PARG for 2 h at 30° C. *D77,78, assays incubated with 15 pmol of mutant human ARH3 (D77, D78).
# FIG. 14A is a graph of the results from incubation with the indicated amount of mouse ARH1, 2, or 3 for 2 h at 30° C. FIG. 14B is a graph of the results from incubation with 230 pmol of mouse ARH1 at 30° C. for the indicated time.
# Mouse ARH3 (2 pmol) and 2.5 μM O-acetyl-[^14C]ADP-ribose (5,000 cpm) in 200 μl of buffer containing 50 mM potassium phosphate (pH 7.0), 10 mM MgCl2 and 5 mM DTT were incubated for 2 h at 30° C., before separation of substrate and products using RP-HPLC as described below.
# Hydrolysis of O-acetyl-[^14C]ADP-ribose catalyzed by ARH3. Assays containing the indicated concentration of O-acetyl-[^14C]-ADP-ribose (0.1 to 2 nmol, 1,000 to 20,000 cpm) and 1.5 pmol of ARH3 in 200 μl of buffer (50 mM KPO4 (pH 7.0), 10 mM MgCl2, 5 mM DTT) were incubated at 30° C. for 20 min. Substrate and products were separated using RP-HPLC. Amounts of product were corrected for ADP-ribose produced in the absence of ARH3 before calculation of hydrolysis rates.
# Because O-acetyl-ADP-ribose was known to be hydrolyzed at alkaline pH Tanny and Moazed (2001), Proc Natl Acad Sci USA. 98(2):415-20, Epub Dec. 26, 2000), it was generated at pH 7.0 in the presence of [^14C-adenine] β-NAD, Sir2, and acetylated histone H3 peptide (FIG. 11A), and the products of Sir2 and ARH3 were analyzed using reverse-phase HPLC at the same pH (FIGS. 11A,B). The products of the ARH3-catalyzed reaction were also analyzed by high resolution-polyacrylamide gel electrophoresis (FIG. 11C). O-acetyl-[^14C]ADP-ribose hydrolase activity was time and ARH3 dependent (FIG. 12) and essentially completely dependent on Mg^2+ (FIG. 13A).
# O-acetyl-ADP-ribose hydrolysis by ARH1 was time and ARH1 dependent (FIG. 14b).
# [2] = ADP-ribose binding assay; details: 1 μM ARH3, 3 μM [14C]ADP-ribose, 30° C., 16 h
# Procedure: ADP-ribose binding assay. [^14C]ADP-ribose was generated by incubation overnight at 30° C. of 80 μM (10 μCi) [adenine-U-^14C]NAD with 50 μl of RT6.2 solution (5 nmol/h NADase activity; gift from Dr. Sunhee Park, NHLBI, National Institutes of Health, Bethesda, Md.) in 250 μl of 50 mM potassium phosphate, pH 7.5, and purified by HPLC using Zorbax Sax column as described above. [^14C]ADP-ribose, eluted at 40 min, was stored at −20° C.
# To assess protein binding, 1 μM human wild type or D77N/D78N mutant ARH3 was incubated (30° C., 16 h) with 3 μM [^14C]ADP-ribose in 50 mM potassium phosphate buffer, pH 7.5, without or with 10 mM MgCl2, and/or 5 mM DTT (total volume 100 μl). A sample (90 μl) was applied to a column (0.5×4 cm) of Affi-Gel boronate (100 mg, Bio-Rad) which was equilibrated with 0.1 M glycine, pH 9.0, containing 0.1 M NaCl, with or without 10 mM MgCl2, and/or 5 mM DTT, and eluted with five 1-ml portions of the same solution. The total eluate, containing ARH with bound ADP-ribose was collected for liquid scintillation counting.
# After incubation of wild-type or mutant ARH3 (1 μM) with [^14C]ADP-ribose (3 μM) (30° C., 16 h) without or with 10 mM MgCl2 and/or 5 mM DTT (total volume 100 μl), unbound ADP-ribose was removed by binding to Affi-gel boronate (Bio-Rad), and ARH3 with ADP-ribose bound, was collected for radioassay. […]
molecule,measurement,setting,value
B1,O-acetyl-ADP-ribose hydrolysis (in words),[1],apparently inactive
same,[14C]ADP-ribose binding,[2],similar
